Values of other authors as cited in paper PMC5982148.

Tests used:
Test in all cases: SPR
CYP1B1 (Homo sapiens) = CYP1B1 (Homo sapiens) (UniProt Q16678)
CYP2C9 (Homo sapiens) = CYP2C9 (Homo sapiens) (UniProt P11712)
[1] = target: glyceraldehyde-3-phosphate dehydrogenase (Homo sapiens) (UniProt P04406)
[2] = target: NADPH-adrenodoxin reductase (Homo sapiens) (UniProt P22570)
SMAD4 (Homo sapiens) = SMAD4 (Homo sapiens) (UniProt Q13485)
[3] = target: cytochrome b5 (Homo sapiens) (UniProt P00167)

Chain of UniProt P04406 (P04406 2-335): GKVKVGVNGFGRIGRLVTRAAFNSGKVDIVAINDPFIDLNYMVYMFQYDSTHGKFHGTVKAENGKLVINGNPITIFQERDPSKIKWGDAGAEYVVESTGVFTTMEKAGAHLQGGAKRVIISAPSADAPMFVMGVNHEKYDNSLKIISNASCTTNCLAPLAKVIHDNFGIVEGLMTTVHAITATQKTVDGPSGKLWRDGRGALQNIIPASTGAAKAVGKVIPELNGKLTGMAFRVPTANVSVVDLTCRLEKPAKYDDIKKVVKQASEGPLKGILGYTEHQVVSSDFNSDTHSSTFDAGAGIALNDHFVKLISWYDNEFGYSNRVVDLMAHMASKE
Chain of UniProt P22570 (P22570 33-491): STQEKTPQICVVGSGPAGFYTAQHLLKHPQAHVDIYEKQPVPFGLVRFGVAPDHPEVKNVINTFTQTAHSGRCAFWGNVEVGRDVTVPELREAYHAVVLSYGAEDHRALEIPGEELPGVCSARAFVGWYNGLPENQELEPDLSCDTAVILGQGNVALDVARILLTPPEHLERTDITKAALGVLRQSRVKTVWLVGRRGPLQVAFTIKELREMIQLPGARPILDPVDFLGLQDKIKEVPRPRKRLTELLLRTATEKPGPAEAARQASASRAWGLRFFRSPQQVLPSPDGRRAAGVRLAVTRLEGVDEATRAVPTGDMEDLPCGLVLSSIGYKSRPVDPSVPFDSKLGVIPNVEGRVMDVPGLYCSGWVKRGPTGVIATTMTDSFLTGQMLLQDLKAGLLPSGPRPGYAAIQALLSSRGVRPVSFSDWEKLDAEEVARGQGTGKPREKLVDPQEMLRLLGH
Chain of UniProt P11712 (P11712 whole entry): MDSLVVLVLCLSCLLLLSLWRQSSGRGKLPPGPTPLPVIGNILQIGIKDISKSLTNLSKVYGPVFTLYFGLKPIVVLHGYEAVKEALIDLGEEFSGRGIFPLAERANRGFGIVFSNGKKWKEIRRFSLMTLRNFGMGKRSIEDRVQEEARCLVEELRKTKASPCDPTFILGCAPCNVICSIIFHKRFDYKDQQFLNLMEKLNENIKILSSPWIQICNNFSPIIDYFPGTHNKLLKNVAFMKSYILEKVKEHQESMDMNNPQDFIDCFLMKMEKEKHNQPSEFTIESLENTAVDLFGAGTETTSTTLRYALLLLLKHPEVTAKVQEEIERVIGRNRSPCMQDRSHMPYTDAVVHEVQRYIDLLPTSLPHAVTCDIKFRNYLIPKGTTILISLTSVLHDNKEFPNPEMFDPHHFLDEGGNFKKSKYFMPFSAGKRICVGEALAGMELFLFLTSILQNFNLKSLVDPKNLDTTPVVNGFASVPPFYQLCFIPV
Chain of UniProt Q16678 (Q16678 whole entry): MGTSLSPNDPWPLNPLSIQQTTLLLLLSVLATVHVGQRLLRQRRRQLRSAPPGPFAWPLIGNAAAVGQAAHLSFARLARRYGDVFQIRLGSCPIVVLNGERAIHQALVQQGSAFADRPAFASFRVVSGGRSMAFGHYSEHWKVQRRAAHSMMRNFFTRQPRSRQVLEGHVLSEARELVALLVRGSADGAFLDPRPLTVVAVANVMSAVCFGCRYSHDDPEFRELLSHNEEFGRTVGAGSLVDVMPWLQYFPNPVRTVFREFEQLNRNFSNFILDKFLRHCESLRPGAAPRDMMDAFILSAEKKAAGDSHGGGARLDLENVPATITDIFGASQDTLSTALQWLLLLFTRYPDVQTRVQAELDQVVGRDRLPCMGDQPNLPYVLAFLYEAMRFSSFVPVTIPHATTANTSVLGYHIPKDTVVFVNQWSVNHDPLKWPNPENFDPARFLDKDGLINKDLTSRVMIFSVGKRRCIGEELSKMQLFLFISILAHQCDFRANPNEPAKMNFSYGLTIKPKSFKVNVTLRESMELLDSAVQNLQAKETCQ
Chain of UniProt Q13485 (Q13485 whole entry): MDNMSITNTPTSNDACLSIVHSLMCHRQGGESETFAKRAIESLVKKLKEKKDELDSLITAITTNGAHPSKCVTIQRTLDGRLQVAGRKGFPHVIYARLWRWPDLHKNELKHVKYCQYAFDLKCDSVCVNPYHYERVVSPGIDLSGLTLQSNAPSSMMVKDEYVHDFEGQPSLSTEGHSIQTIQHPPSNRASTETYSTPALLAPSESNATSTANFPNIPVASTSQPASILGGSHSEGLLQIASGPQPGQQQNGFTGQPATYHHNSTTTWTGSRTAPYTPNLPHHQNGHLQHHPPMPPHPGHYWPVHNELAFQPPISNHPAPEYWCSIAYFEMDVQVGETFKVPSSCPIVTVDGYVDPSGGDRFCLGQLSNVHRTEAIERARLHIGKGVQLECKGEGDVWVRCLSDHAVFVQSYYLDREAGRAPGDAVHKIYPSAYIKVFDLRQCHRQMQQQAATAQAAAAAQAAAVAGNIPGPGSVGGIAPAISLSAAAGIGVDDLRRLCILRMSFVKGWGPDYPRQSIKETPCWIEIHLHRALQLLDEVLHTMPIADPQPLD

Row | Kd (CYP1B1 (Homo sapiens)) [nM] | Kd (CYP2C9 (Homo sapiens)) [nM] | Kd [1] [nM] | Kd [2] [µM] | Kd (SMAD4 (Homo sapiens)) [nM] | Kd [3] [nM] | Substance
1 | 70 | 1100 | 100 | – | – | – | cytochrome b5 (from UniProt P00167)
2 | – | – | – | 13 | 1600 | 1500 | ferrochelatase (from UniProt P22830)
